The test has as its target recombinant BRD4BD2 (residues 368-440) (human) (UniProt O60885).

Chain of GAK_(14–351)-HA (O14976 14-351): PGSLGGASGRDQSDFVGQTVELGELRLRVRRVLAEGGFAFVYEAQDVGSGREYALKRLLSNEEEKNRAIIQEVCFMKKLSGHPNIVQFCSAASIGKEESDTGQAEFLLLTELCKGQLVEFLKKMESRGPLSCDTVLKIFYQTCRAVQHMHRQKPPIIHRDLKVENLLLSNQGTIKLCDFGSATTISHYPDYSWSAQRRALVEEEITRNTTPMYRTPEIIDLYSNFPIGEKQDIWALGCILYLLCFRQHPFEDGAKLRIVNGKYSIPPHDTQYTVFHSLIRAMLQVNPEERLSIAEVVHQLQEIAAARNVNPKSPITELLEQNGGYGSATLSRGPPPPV

With “GAK_(14–351)-HA (from UniProt O14976 14-351) (domain or fragment)”, the intact protein mass spectrometry: MMH2 adduct on recombinant GAK 14-351 with BRD4BD2 present, 4 °C 16 h (approximately 2% without BRD4BD2) was found to be 22% and the intact protein mass spectrometry: TMX1 adduct on recombinant GAK 14-351 with BRD4BD2 present, 4 °C 16 h (none detectable without BRD4BD2) was 5%.

Values taken from PMC11582070, “Template-assisted covalent modification underlies activity of covalent molecular glues” (Nature Chemical Biology, 2023).
